Experiment: Partition coefficient K in two-phase aqueous system PEG (1000) 12.5%-K2HPO4 12.5%
Format: physicochemical
Settings: PEG (MW 1000) 12.5%-K2HPO4 12.5% two-phase aqueous solvent system
Text: A determination of the partition coefficient, K, is made by dissolving a small sample into a solvent system, shaking the mixture, and measuring the concentration of the sample in both phases after separation of the phases. That provides the ratio of concentration in the upper to lower phase (Cu/Cl). The phase chosen as the mobile phase is that giving a partition coefficient of 1 to 2. The efficiency of a separation will be determined by use of the conventional gas chromatographic equation: N=(4R/W)^2. The theoretical plates or N is calculated from the shape of the peaks. R is the retention time or volume of the peak maximum and W is the peak width expressed in the same units as R. For preparative separations, the values of N may be up to 1000, but the more important relationship is resolution. Resolution between adjacent peaks is given by: RS=2(VR,2−VR,1)/(W1+W2). Using that equation and substituting each solute retention volume by the following: VR=Vm+KVS. The Vm term cancels giving: RS=2(K2−K1)Vs/(W1+W2).
The apparatus of interest can be used to separate proteins or other large molecules. In this example, the spiral tube support was made as described above and used to purify mouse uteroglobin. Mouse uteroglobin has a MW of […] and normally exists as a dimer; but, in solution, a monomeric form of the protein can also accumulate. A separation was made in the spiral tube support to separate uteroglobin monomers from uteroglobin dimers. This was done by measuring the K value using HPLC and then separating the protein using countercurrent chromatography with the spiral tube support apparatus. […] The heights of the peaks representing the monomer at 31.5 min. and dimer at 32.8 min. HPLC retention time, respectively, were measured and the ratios give different values for the concentration in the upper phase over that of the lower phase. The two protein peaks calculated to K values of 4.0 and 6.9 in PEG (1000) 12.5%-K2HPO4 12.5%. The different K values mean that the two species could be separated with one or the other phase mobile. Since the numeric value is over two, the analyte would remain in the coil a long time, ultimately being eluted in approximately four to seven column volumes. Consequently, a run was performed for two column volumes and then the contents of the column were extruded and analyzed.
In this example, 31 mg lysozyme (14.4 kDa) and 24 mg myoglobin (17.7 kDa) were mixed and separated using the countercurrent chromatography apparatus and methods of use as claimed. A non-denaturing two-phase aqueous solvent system consisting of 12.5% PEG (MW 1000):12.5% K2HPO4 provides for a polyethylene-rich upper phase and phosphate buffer-rich lower phase. The lower phase was used as the mobile phase at a flow rate of 1 ml/min. […]

| Substance | K value (concentration in upper phase over lower phase) |
| --- | --- |
| lysozyme | 1.35 |
| myoglobin | 0.38 |
| uteroglobin dimer: dimeric form of mouse uteroglobin protein | 6.9 |
| uteroglobin monomer: monomeric form of mouse uteroglobin protein | 4.0 |

— US8597509B2, “Countercurrent chromatography rotor” (CC Biotech LLC, priority 2008, dated 2013)
